For the experiment, the target named is Nup145N(443–605) (Saccharomyces cerevisiae) (UniProt P49687). The experiment can be described thus: SAXS.

In general, stoichiometry N refers to a count of units in the complex or per binding partner. Take “Nup145N(443–605) (from UniProt P49687 443-605) (domain or fragment)”: the dimer fraction stood at 98% and the stoichiometry N came out at 2.

The values above are taken from article PMC3136511.
